Data reported in patent publication US20230391826A1 (SANFORD BURNHAM PREBYS MEDICAL DISCOVERY INSTITUTE, published 2023).
Read-outs that look alike come from different tables or passages of the source. Where no end group is shown, it is not given here.

Key:
[1] = target: T1, EphA2 endogenously expressed on PC3 prostate cancer cells (UniProt P29317 24-976, limits assumed); assay: cell-based or functional assay
[2] = target: T2, EphA2 extracellular domain fused to the Fc portion of an antibody (EphA2-Fc); assay: ELISA, inhibition of ephrinA5-AP binding to immobilized EphA2-Fc
T2 construct: extracellular domain; Immobilized on the ELISA wells; also called immobilized EphA2
T2 sequence (P29317 whole entry, the tested form may be a part): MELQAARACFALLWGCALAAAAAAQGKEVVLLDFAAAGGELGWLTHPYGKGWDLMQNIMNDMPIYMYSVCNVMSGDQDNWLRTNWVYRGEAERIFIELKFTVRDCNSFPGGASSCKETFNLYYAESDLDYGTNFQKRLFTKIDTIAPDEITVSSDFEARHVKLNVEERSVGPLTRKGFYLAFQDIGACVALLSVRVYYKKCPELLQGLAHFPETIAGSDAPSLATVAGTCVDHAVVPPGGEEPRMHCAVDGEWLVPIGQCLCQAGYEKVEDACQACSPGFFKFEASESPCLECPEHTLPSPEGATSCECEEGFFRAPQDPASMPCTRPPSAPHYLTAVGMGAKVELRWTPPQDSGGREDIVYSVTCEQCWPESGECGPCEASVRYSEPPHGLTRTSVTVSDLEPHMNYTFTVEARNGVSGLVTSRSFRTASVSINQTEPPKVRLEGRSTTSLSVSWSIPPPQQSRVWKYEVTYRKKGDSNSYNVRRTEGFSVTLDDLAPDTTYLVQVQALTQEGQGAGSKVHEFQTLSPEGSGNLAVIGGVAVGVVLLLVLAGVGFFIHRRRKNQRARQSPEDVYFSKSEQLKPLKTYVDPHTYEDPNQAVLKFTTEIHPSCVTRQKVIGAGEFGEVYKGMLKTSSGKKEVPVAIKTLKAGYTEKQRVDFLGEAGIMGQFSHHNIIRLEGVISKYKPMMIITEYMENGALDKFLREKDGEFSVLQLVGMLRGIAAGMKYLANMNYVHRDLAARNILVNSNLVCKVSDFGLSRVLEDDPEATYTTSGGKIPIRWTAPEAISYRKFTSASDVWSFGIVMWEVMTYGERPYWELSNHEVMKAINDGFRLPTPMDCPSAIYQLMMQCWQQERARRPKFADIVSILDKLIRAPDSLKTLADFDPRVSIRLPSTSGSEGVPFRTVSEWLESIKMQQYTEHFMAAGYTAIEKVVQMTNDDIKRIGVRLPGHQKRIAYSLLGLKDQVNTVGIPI

[3] = target: T1, EphA2 endogenously expressed on PC3 …; assay: cell-based or functional assay; remark: listed apart in the source
[4] = target: T2, EphA2 extracellular domain fused to the …; assay: ELISA, inhibition of ephrinA5-AP binding to immobilized EphA2-Fc; representative experiment, triplicates
[5] = target: T3, EphA2 ligand binding domain (EphA2 LBD), residues 28-200 (UniProt P29317 28-200); assay: ITC, EphA2 LBD (200-250 µM) titrated into 10-12.5 µM peptide; single titration shown
T3 construct: range 28-200; Expressed in E. coli; also called soluble EphA2 LBD; soluble monomeric EphA2 LBD
T3 sequence (P29317 other isoform, or with tags, fused parts or gaps limits assumed, form in doubt): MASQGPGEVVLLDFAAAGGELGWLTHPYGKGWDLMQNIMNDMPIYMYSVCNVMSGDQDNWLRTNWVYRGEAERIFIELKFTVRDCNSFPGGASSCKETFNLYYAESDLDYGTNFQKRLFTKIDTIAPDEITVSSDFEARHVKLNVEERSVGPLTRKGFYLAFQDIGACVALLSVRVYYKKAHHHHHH

[6] = target: T3, EphA2 ligand binding domain (EphA2 …); assay: ITC, soluble EphA2 LBD and peptide
[7] = target: T3, EphA2 ligand binding domain (EphA2 …); assay: ITC, soluble EphA2 LBD and peptide; remark: listed apart in the source
Experimental: (§1) For ITC, all peptides are dissolved in DMSO and both the EphA2 LBD and the peptides are diluted to obtain a final buffer containing 9.5 mM HEPES, pH 7.9, 95 mM NaCl, and 5% DMSO. The experiments are carried out at 296 K (23° C.) using an ITC200 calorimeter (Microcal). Two-microliter aliquots of a peptide solution are injected into the cell containing 205 μL EphA2 LBD. 200-400 μM peptides are titrated into 20-40 μM EphA2 LBD. Experimental data are analyzed using the Origin software package (Microcal). The integrated values for the reaction heats are normalized to the amount of injected peptide after blank subtraction.

[8] = target: T2, EphA2 extracellular domain fused to the …; assay: ELISA, inhibition of ephrinA5-AP binding to immobilized EphA2-Fc; remark: listed apart in the source
[9] = target: T3, EphA2 ligand binding domain (EphA2 …); assay: ITC, soluble EphA2 LBD and peptide; remark: listed apart in the source
Experimental: as §1

T1 sequence (P29317 24-976 limits assumed): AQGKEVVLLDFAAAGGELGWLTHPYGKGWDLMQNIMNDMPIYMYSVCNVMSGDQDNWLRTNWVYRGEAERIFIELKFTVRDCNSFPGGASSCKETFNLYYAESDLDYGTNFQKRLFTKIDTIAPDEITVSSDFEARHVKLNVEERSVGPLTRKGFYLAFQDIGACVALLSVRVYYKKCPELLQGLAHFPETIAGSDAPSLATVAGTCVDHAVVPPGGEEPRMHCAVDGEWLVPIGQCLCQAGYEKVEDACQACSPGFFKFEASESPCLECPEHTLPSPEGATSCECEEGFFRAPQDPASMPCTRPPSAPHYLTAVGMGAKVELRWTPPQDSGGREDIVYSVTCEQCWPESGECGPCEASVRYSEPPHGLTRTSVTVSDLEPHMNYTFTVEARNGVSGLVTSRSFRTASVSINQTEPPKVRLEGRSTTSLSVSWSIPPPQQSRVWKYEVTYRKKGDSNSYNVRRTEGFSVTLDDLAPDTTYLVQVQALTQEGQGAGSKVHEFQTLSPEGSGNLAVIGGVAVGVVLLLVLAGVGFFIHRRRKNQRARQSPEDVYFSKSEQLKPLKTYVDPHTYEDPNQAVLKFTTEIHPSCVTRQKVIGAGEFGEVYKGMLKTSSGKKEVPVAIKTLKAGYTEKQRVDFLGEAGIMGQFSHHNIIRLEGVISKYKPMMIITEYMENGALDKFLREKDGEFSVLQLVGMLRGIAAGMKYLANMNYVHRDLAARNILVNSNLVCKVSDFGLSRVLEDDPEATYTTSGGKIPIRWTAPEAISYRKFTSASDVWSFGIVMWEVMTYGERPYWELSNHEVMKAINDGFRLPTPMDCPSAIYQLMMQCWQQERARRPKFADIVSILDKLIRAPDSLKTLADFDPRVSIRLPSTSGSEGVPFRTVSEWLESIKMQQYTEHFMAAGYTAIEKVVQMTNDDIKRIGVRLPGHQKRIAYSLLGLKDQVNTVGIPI

- EC50 pAKT inhib [1]: 90 pM
- Etop pAKT inhib [1]: 1
- Etop pY588 [1]: 0.87 normalized to ephrinA1-Fc
- βlig (bias factor) [1]: 0.66
- IC50 [2]: 0.66 nM
- Blig (bias factor) [3]: 0.81
- EC50 PY588 [3]: 0.53 nM
- Emax PY588 [3]: 0.78 normalized to ephrinA1-Fc
- IC50 PAKT [3]: 0.068 nM
- IC50 [4]: 0.79 nM
- Kd [5]: 18 nM
- Kd [6]: 380 nM
- N (binding stoichiometry) [6]: 2.2
- -TΔS [7]: 21.9 kcal/mol
- Kd [7]: 21 nM
- N (binding stoichiometry) [7]: 2.2
- ΔG [7]: -10.4 kcal/mol
- ΔH [7]: -32.3 kcal/mol
- IC50 [8]: 0.65 nM
- Kd [9]: 21 nM
- N (binding stoichiometry) [9]: 2.2
B1: CGA-WLA-YRPK dimer (N-ter) (peptide)
peptide: CGAWLAYPDSVPYRPK
modifications: also: N-terminally disulfide-linked homodimer, disulfide at 1, other end not in the chain
notes: also called dimer (5); dimeric peptide (5)
